Data as given in the RNAGym collection of RNA variant scans (doi:10.1021/acssynbio.7b00057).

B1: Pistol ribozyme (parent)
chain: GGGUCGUUGUUCCAUAAUCGCGUGGAUAUGGCACGCAAGUUUCUACCGGGCACCGUAAAUGUCCGACUGGAGCCGUUCGGGCGGCUAUAAACAGACCUCAGGCCCGAAGCGUGGCGGCACCUGCCGCCGGUGGUAAAAAAGAUCGGAAGAGCACACGUCU

Variants of: B1
Test: aptazyme ON/OFF ratio, guanine; higher = stronger switching; co-transcriptional cleavage with and without guanine

| Variant | aptazyme ON/OFF ratio |
| --- | --- |
| U7G U8C G9U U10C C12U C13A | 1.35 |
| U7G U8C G9U U10C C12U C13G | 1.24 |
| U7G U8C G9U U10C C12U C13U | 1.26 |
| U7G U8C G9U U10G U11A C13G | 1.07 |
| U7G U8C G9U U10G U11A C13U | 1.12 |
| U7G U8C G9U U10G U11A C13A | 1.08 |
| U7G U8C G9U U10G U11G C12A | 1.31 |
| U7G U8C G9U U10G U11G C12G | 1.31 |
| U7G U8C G9U U10G U11G C12U | 1.35 |
| U7G U8C G9U U10A U11G C12U C13U | 1.16 |
| U7G U8C G9U U10A U11G C12U C13G | 1.11 |
| U7G U8C G9U U10A U11G C12U C13A | 1.2 |
| U7G U8C G9U U10A C13G | 1.08 |
| U7G U8C G9U U10A C13A | 1.35 |
| U7G U8C G9U U10A C13U | 2.29 |
| U7G U8C G9U U10C U11C C12U C13U | 1.27 |
| U7G U8C G9U U10C U11C C12U C13A | 1.55 |
| U7G U8C G9U U10C U11C C12U C13G | 1.41 |
| U7G U8C G9U U11C C12U C13G | 1.05 |
| U7G U8C G9U U11C C12U C13A | 1.31 |
| U7G U8C G9U U11C C12U C13U | 1.49 |

| Variant | aptazyme ON/OFF ratio |
| --- | --- |
| U7G U8C G9U U10C U11A C12G C13U | 1.2 |
| U7G U8C G9U U10C U11A C12G C13A | 1.39 |
| U7G U8C G9U U10C U11A C12G C13G | 1.31 |
| U7G U8C G9U U10G C12G | 1.5 |
| U7G U8C G9U U10G C12U | 1.25 |
| U7G U8C G9U U10G C12A | 1.58 |
| U7G U8C U10A U11A C12U C13G | 1.2 |
| U7G U8C U10A U11A C12U C13U | 1.24 |
| U7G U8C U10A U11A C12U C13A | 1.2 |
| U7G U8C G9U U10C U11G C12A C13U | 1.25 |
| U7G U8C G9U U10C U11G C12A C13G | 1.21 |
| U7G U8C G9U U10C U11G C12A C13A | 1.18 |
| U7G U8C G9U U10A U11C C12G | 1.26 |
| U7G U8C G9U U10A U11C C12U | 1.72 |
| U7G U8C G9U U10A U11C C12A | 2.56 |
| U7G U8C G9U U11G C13A | 1.32 |
| U7G U8C G9U U11G C13G | 1.05 |
| U7G U8C G9U U11G C13U | 1.41 |
| U7G U8C U10A C12G | 1.29 |
| U7G U8C U10A C12A | 1.21 |
| U7G U8C U10A C12U | 1.31 |

| Variant | aptazyme ON/OFF ratio |
| --- | --- |
| U7G U8C G9U U10G C13A | 1.24 |
| U7G U8C G9U U10G C13G | 1.27 |
| U7G U8C G9U U10G C13U | 1.24 |
| U7G U8C G9U U10A U11A | 4.34 |
| U7G U8C G9U U10A U11C | 1.37 |
| U7G U8C G9U U10A U11G | 2.29 |
| U7G U8C G9U U10G U11C C12U C13U | 1.16 |
| U7G U8C G9U U10G U11C C12U C13G | 1.22 |
| U7G U8C G9U U10G U11C C12U C13A | 1.34 |
| U7G U8C G9U U10C U11A C12G | 1.98 |
| U7G U8C G9U U10C U11A C12A | 2.7 |
| U7G U8C G9U U10C U11A C12U | 2.96 |
| U7G U8C G9U | 4.98 |
| U7G U8C G9U U10A C12G C13A | 1.13 |
| U7G U8C G9U U10A C12G C13U | 1.22 |
| U7G U8C G9U U10A C12G C13G | 1.08 |
| U7G U8C G9U U10C U11C C13U | 1.52 |
| U7G U8C G9U U10C U11C C13G | 1.08 |
| U7G U8C G9U U10C U11C C13A | 1.34 |
| U7G U8C G9U U11G C12U | 1.55 |
| U7G U8C G9U U11G C12G | 1.34 |

| Variant | aptazyme ON/OFF ratio |
| --- | --- |
| U7G U8C G9U U11G C12A | 1.44 |
| U7G U8C G9U U10G C12U C13A | 1.29 |
| U7G U8C G9U U10G C12U C13G | 1.39 |
| U7G U8C G9U U10G C12U C13U | 1.34 |
| U7G U8C G9U C12U C13A | 1.18 |
| U7G U8C G9U C12U C13G | 1.16 |
| U7G U8C G9U C12U C13U | 1.41 |
| U7G U8C U10A U11G C13A | 1.22 |
| U7G U8C U10A U11G C13U | 1.23 |
| U7G U8C U10A U11G C13G | 1.23 |
| U7G U8C G9U U11G | 1.36 |
| U7G U8C G9U U11A | 1.8 |
| U7G U8C G9U U11C | 2.88 |
| U7G U8C U10A C12A C13G | 1.1 |
| U7G U8C U10A C12A C13U | 1.36 |
| U7G U8C U10A C12A C13A | 1.24 |
| U7G U8C G9U U11C C12G C13U | 1.32 |
| U7G U8C G9U U11C C12G C13A | 1.3 |
| U7G U8C G9U U11C C12G C13G | 1.32 |
| U7G U8C G9U U10A U11C C13G | 1.05 |
